# Test results reported in the supplement of paper PMC9112550, “Optimization of the antimicrobial peptide Bac7 by deep mutational scanning” (BMC Biology, 2022).
# Tested on: Escherichia coli TOP10
# Assay: shrunken log2 fold change of peptide-encoding DNA abundance (4.5 h post-induction vs induction); higher = less antimicrobial activity (less host growth inhibition)
# Conditions: time post-induction: 4.5 h; library: site-saturation at positions 5, 18, 19, 20
# 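Note: peptides expressed intracellularly from a pBAD plasmid library in pooled LB shake-flask culture, induced with 0.3% L-arabinose, DNA abundance read by NGS, three biological replicates, DESeq2 with apeglm shrinkage.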
row,Sequence,shrunken log2 fold change
1,RRIRNRPPRLPRPRPRPCMGPRP,-0.256
2,RRIRTRPPRLPRPRPRPPEVPRP,0.0579
3,RRIRERPPRLPRPRPRPILIPRP,-0.0809
4,RRIRWRPPRLPRPRPRPYALPRP,0.0509
5,RRIRPRPPRLPRPRPRPMTTPRP,-0.104
6,RRIRARPPRLPRPRPRPFMVPRP,-0.235
7,RRIRGRPPRLPRPRPRPVHSPRP,0.0124
8,RRIRNRPPRLPRPRPRPRGSPRP,0.299
9,RRIRWRPPRLPRPRPRPYGEPRP,-0.0723
10,RRIRSRPPRLPRPRPRPCCMPRP,-0.0571
11,RRIRQRPPRLPRPRPRPFPPPRP,-0.0272
12,RRIRKRPPRLPRPRPRPNYDPRP,-0.359
13,RRIRFRPPRLPRPRPRPQPVPRP,0.356
14,RRIRIRPPRLPRPRPRPSQVPRP,-0.186
15,RRIRDRPPRLPRPRPRPCWIPRP,-0.255
16,RRIRIRPPRLPRPRPRPLIIPRP,-0.652
17,RRIRLRPPRLPRPRPRPYYTPRP,-0.76
18,RRIRNRPPRLPRPRPRPKAYPRP,0.0121
19,RRIRARPPRLPRPRPRPYQQPRP,-0.316
20,RRIRRRPPRLPRPRPRPSLAPRP,0.89
21,RRIRDRPPRLPRPRPRPHNLPRP,0.156
22,RRIRQRPPRLPRPRPRPGCTPRP,-0.269

row,Sequence,shrunken log2 fold change
1,RRIRHRPPRLPRPRPRPIFEPRP,-0.0251
2,RRIRQRPPRLPRPRPRPDFMPRP,-0.316
3,RRIRPRPPRLPRPRPRPMPQPRP,-0.0158
4,RRIRDRPPRLPRPRPRPQCTPRP,0.191
5,RRIRIRPPRLPRPRPRPGPVPRP,-0.0724
6,RRIRNRPPRLPRPRPRPEQSPRP,0.338
7,RRIRPRPPRLPRPRPRPGFGPRP,0.752
8,RRIRWRPPRLPRPRPRPDAIPRP,-0.0199
9,RRIRVRPPRLPRPRPRPDQHPRP,-0.0679
10,RRIRTRPPRLPRPRPRPVSTPRP,0.137
11,RRIRCRPPRLPRPRPRPEEHPRP,-0.0578
12,RRIRPRPPRLPRPRPRPDFGPRP,-0.19
13,RRIRCRPPRLPRPRPRPKPSPRP,0.136
14,RRIRERPPRLPRPRPRPRPCPRP,-0.0205
15,RRIRFRPPRLPRPRPRPWYGPRP,-0.138
16,RRIRQRPPRLPRPRPRPTGVPRP,0.216
17,RRIRKRPPRLPRPRPRPWVQPRP,0.0916
18,RRIRTRPPRLPRPRPRPKIMPRP,-0.519
19,RRIRSRPPRLPRPRPRPCECPRP,-0.0304
20,RRIRMRPPRLPRPRPRPNTRPRP,0.371
21,RRIRSRPPRLPRPRPRPQQCPRP,-0.146
22,RRIRARPPRLPRPRPRPIRMPRP,0.183

row,Sequence,shrunken log2 fold change
1,RRIRFRPPRLPRPRPRPYRNPRP,-0.00237
2,RRIRWRPPRLPRPRPRPAWIPRP,0.035
3,RRIRCRPPRLPRPRPRPGTAPRP,0.292
4,RRIRWRPPRLPRPRPRPMVSPRP,-0.0339
5,RRIRMRPPRLPRPRPRPPWPPRP,1.1
6,RRIRMRPPRLPRPRPRPASPPRP,0.14
7,RRIRKRPPRLPRPRPRPPLIPRP,0.285
8,RRIRARPPRLPRPRPRPTAEPRP,1.3
9,RRIRNRPPRLPRPRPRPPIRPRP,0.0511
10,RRIRDRPPRLPRPRPRPTLFPRP,0.533
11,RRIRERPPRLPRPRPRPTICPRP,-0.342
12,RRIRARPPRLPRPRPRPLLGPRP,1.07
13,RRIRIRPPRLPRPRPRPNIRPRP,-1.14
14,RRIRPRPPRLPRPRPRPMSNPRP,-0.127
15,RRIRIRPPRLPRPRPRPYQAPRP,-0.342
16,RRIRERPPRLPRPRPRPVHIPRP,-0.202
17,RRIRDRPPRLPRPRPRPDTIPRP,-0.0164
18,RRIRMRPPRLPRPRPRPPNYPRP,0.0891
19,RRIRNRPPRLPRPRPRPRYAPRP,-0.0268
20,RRIRTRPPRLPRPRPRPQDWPRP,0.209
21,RRIRNRPPRLPRPRPRPEANPRP,-0.0185
22,RRIRSRPPRLPRPRPRPIHYPRP,-0.386

row,Sequence,shrunken log2 fold change
1,RRIRQRPPRLPRPRPRPYTCPRP,0.0526
2,RRIRTRPPRLPRPRPRPPCSPRP,-0.00786
3,RRIRLRPPRLPRPRPRPWPKPRP,-0.0141
4,RRIRDRPPRLPRPRPRPDITPRP,0.282
5,RRIRERPPRLPRPRPRPQRWPRP,0.117
6,RRIRCRPPRLPRPRPRPVKKPRP,0.0604
7,RRIRRRPPRLPRPRPRPKAVPRP,0.0693
8,RRIRMRPPRLPRPRPRPPTDPRP,1.21
9,RRIRNRPPRLPRPRPRPKIFPRP,0.19
10,RRIRWRPPRLPRPRPRPGQVPRP,-0.0635
11,RRIRSRPPRLPRPRPRPDLAPRP,0.444
12,RRIRWRPPRLPRPRPRPYHGPRP,-0.327
13,RRIRFRPPRLPRPRPRPPQEPRP,0.258
14,RRIRRRPPRLPRPRPRPRPTPRP,0.821
15,RRIRNRPPRLPRPRPRPFWNPRP,-0.151
16,RRIRLRPPRLPRPRPRPHLDPRP,-0.0911
17,RRIRIRPPRLPRPRPRPNKVPRP,-0.393
18,RRIRHRPPRLPRPRPRPMNYPRP,-0.316
19,RRIRERPPRLPRPRPRPFQPPRP,-0.311
20,RRIRPRPPRLPRPRPRPGWPPRP,0.667
21,RRIRWRPPRLPRPRPRPGVSPRP,0.34
22,RRIRFRPPRLPRPRPRPWSHPRP,-0.843

row,Sequence,shrunken log2 fold change
1,RRIRLRPPRLPRPRPRPDCEPRP,0.0566
2,RRIRHRPPRLPRPRPRPWPMPRP,0.0159
3,RRIRPRPPRLPRPRPRPVCNPRP,-0.141
4,RRIRQRPPRLPRPRPRPDWIPRP,-0.035
5,RRIRRRPPRLPRPRPRPNLMPRP,0.85
6,RRIRFRPPRLPRPRPRPYRPPRP,-1.76
7,RRIRERPPRLPRPRPRPFFMPRP,-0.0808
8,RRIRSRPPRLPRPRPRPEHVPRP,-0.191
9,RRIRLRPPRLPRPRPRPVVWPRP,0.547
10,RRIRIRPPRLPRPRPRPAVWPRP,0.141
11,RRIRMRPPRLPRPRPRPSKSPRP,0.166
12,RRIRGRPPRLPRPRPRPAQCPRP,0.471
13,RRIRMRPPRLPRPRPRPNMDPRP,0.0442
14,RRIRCRPPRLPRPRPRPRRPPRP,0.654
15,RRIRARPPRLPRPRPRPQIMPRP,0.0849
16,RRIRIRPPRLPRPRPRPGFQPRP,-0.106
17,RRIRIRPPRLPRPRPRPTWSPRP,0.047
18,RRIRGRPPRLPRPRPRPMTMPRP,0.146
19,RRIRQRPPRLPRPRPRPYYKPRP,-0.962
20,RRIRQRPPRLPRPRPRPTRHPRP,0.434
21,RRIRVRPPRLPRPRPRPNTRPRP,0.02
